B1: EboV.YD.01 IgG (antibody, V domains shown)
VH: QVRLVQSGGGLVKPGGSLRLSCAASGFTFSTFAMHWVRQAPGKGLEWVSSISRSSGSINYADSVKGRFTISRDNAKNSLFLQMNSLRADDTAVYYCARENTIPFGGGVVLERASHFDYWGQGTTVTVSS
VL: DIRVTQSPSSLSASVGDRVTIICRASQSSSTFLNWYQQKPGKAPNLLIYAASSLQSGVPSRFSGSGSGTDFTLTISSLQPEDFATYYCQQSYSAPYTFGQGTKVDIK
B2: EboV.YD.02 IgG (antibody, V domains shown)
VH: QVQLVQSGAEVKKPGTSVKISCKASGYSFTSKYMHWVRQAPGQGLEWMGKINPSGGRRDYAQKFQGRVTMTRDTSTSTVYMELSSLRSGDTAVYYCARDMHGVLSWYHALDYWGQGTLVTVSS
VL: DIRVTQSPSSLSTSVGDRVTITCRASQDIGRYLNWYQQKPGKAPKLLIYGASSLQSGVPSRFSGSGSGTDFTLTISSLQPEDFATYYCQQGYRIPITFGQGTRLEIK
B3: EboV.YD.04 IgG (antibody, V domains shown)
VH: QVQLVESGGGLVKPGGSLRLSCAASGFMFSNAWMNWVRQAPGKGLEWVGRIKSRSDGGTTDYAAPVKGRFTFSREDSKNMLYLQMNSLKREDTAVYYCTTRVSIFRGPIEDVWGQGTTVTVSS
VL: QPVLTQPPSVSGAPGQRVTISCAGSSSNIGAGYDVYWYQQLPGTAPKLLIYGNNNRPSGVPDRFSGSKSGTSASLAITGLQAEDEAEYYCQSYDSSLRDSYVFGSGTKVTVL
B4: EboV.YD.03 IgG (antibody, V domains shown)
VH: QVQLQESGPGLVKPSETLSLTCTVSGDSLSSSYWSWIRQSAGKGLEYIGRTYVSGNTKYNPSLKSRVTMSVDTSKNQFSLRLTSVTAADTAVYYCARIRVLPAAMLRGDYWYFDLWGRGTLVTVSS
VL: SYELTQLPSVSVSPGQTASITCSGDKVENKYVCWYQQKSGQSPVLVIYEDSKRPSGIPERFSGSNSGNTATLTISGTQTMDEADYFCQAWDSSIGVFGTGTKLTVL

Molecular target: T1, EBOV GP on pseudotyped lentiviral particles (Ebola virus (EBOV), UniProt Q05320 33-676)
T1 sequence: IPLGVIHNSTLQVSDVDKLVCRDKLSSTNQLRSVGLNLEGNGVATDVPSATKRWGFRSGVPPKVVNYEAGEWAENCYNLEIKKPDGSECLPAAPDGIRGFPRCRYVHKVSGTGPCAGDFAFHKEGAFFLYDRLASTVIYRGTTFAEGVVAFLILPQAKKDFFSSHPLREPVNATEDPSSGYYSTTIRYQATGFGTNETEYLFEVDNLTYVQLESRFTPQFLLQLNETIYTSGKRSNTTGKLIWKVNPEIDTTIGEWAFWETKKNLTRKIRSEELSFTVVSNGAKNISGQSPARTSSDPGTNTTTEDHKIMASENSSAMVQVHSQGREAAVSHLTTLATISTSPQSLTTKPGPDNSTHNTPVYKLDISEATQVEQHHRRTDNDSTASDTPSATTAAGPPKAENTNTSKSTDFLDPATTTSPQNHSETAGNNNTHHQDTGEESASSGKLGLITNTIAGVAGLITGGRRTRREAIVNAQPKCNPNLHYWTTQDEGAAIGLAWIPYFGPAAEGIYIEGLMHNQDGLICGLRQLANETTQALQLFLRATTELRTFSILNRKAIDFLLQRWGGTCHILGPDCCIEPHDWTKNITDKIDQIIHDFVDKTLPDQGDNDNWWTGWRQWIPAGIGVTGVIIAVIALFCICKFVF
Test: cell-based or functional assay

| Binder | IC50, neutralization activity in a pseudotyped virus entry assay [µg/mL] |
| --- | --- |
| B1 | 7.1 |
| B2 | 1.6 |
| B3 | 0.5 |
| B4 | 1.1 |

Molecular target: T1, EBOV GP on pseudotyped lentiviral …
Test: cell-based or functional assay
Remark: another data set of the same source

| Binder | % EBOV Neut. (10 µg/mL) [%] |
| --- | --- |
| B1 | 55.1 |
| B2 | 70.8 |
| B3 | 98.8 |
| B4 | 97.3 |
